Publication doi:10.1101/671792

Target: polymerization-deficient p62 PB1 domain D69A/D73A (human) (UniProt Q13501)
Test: ITC

B1: MEKK3 PB1 domain, residues 43-127 (ITC) (domain or fragment)
chain: SDVRIKFEHNGERRIIAFSRPVKYEDVEHKVTTVFGQPLDLHYMNNELSILLKNQDDLDKAIDILDRSSSMKSLRILLLSQDRNH
A Kd of 26.8 nM was found for B1 in this work.
